From the supplement of paper PMC10724198
± gives the standard deviation of the averaged measurements.

Assays:
Saccharomyces cerevisiae [1] = test: protein stability index of tFT-peptide fusion (C-terminal peptide) (PSI (0-1 scale)); higher = more stable (slower turnover); conditions: genetic background: wild type; temperature: 30 C
Saccharomyces cerevisiae [2] = test: as above
Description: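 MPS profiling in S. cerevisiae of the tFT-X12 degron library: putative degron peptides plus stable controls, 12 aa, fused to the C-terminus of a sfGFP-mCherry timer. Cells are FACS-sorted into 8 mCherry/sfGFP bins and deep-sequenced. PSI runs from 0 (unstable) to 1 (stable). Backgrounds are wild type, das1Δ and doa10Δ at 30 °C, and wild type, das1Δ, cdc34-1 and cdc53-1 at 37 °C; 2-3 technical replicates each.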

[3] = genetic background: cdc34-1, temperature: 37 C
[4] = genetic background: cdc53-1, temperature: 37 C
[5] = genetic background: das1 deletion, temperature: 30 C
[6] = genetic background: das1 deletion, temperature: 37 C
[7] = genetic background: doa10 deletion, temperature: 30 C
[8] = genetic background: wild type, temperature: 30 C
[9] = genetic background: wild type, temperature: 37 C
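Further: PSI is a weighted mean of sequencing reads over stability bins, variants kept only with over 10 reads, mCherry proximal and sfGFP distal, peptide attached via GGGS linker.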

Row | Sequence | protein stability index (Saccharomyces cerevisiae [1]) | protein stability index (Saccharomyces cerevisiae [2]; [3]) | protein stability index (Saccharomyces cerevisiae [2]; [4]) | protein stability index (Saccharomyces cerevisiae [2]; [5]) | protein stability index (Saccharomyces cerevisiae [2]; [6]) | protein stability index (Saccharomyces cerevisiae [2]; [7]) | protein stability index (Saccharomyces cerevisiae [2]; [8]) | protein stability index (Saccharomyces cerevisiae [2]; [9])
1 | LLGSRFVLIRSL | 0.185 ± 0.017 | 0.488 ± 0.028 | 0.571 ± 0.044 | 0.462 ± 0.026 | 0.621 ± 0.012 | 0.114 ± 0.014 | 0.121 ± 0.01 | 0.161 ± 0.009
2 | LFIRSFLFFSHF | 0.27 ± 0.0052 | 0.353 ± 0.0079 | 0.3482 ± 0.00057 | 0.498 ± 0.019 | 0.581 ± 0.016 | 0.248 ± 0.026 | 0.184 ± 0.025 | 0.307 ± 0.082
3 | TIYGYEVTRKIG | 0.155 ± 0.0023 | 0.645 ± 0.068 | 0.78 ± 0.025 | 0.621 ± 0.019 | 0.732 ± 0.031 | 0.0795 ± 0.011 | 0.11 ± 0.021 | 0.145 ± 0.018
4 | GDSVRVIIFCLN | 0.304 ± 0.081 | 0.465 ± 0.041 | 0.707 ± 0.086 | 0.339 ± 0.054 | 0.686 ± 0.068 | 0.119 ± 0.02 | 0.136 ± 0.027 | 0.1273 ± 0.00068
5 | ALFVGVVLLVCW | 0.298 ± 0.013 | 0.0857 ± 0.0098 | 0.193 ± 0.023 | 0.177 ± 0.023 | 0.28 ± 0.0069 | 0.154 ± 0.013 | 0.156 ± 0.032 | 0.24564 ± 0.00015
6 | LPCPPSPASLPR | 0.498 ± 0.0076 | 0.676 ± 0.0092 | 0.7154 ± 0.0027 | 0.447 ± 0.013 | 0.634 ± 0.0069 | 0.437 ± 0.013 | 0.448 ± 0.0041 | 0.59 ± 0.019
7 | VYCTFLFAYTLP | 0.483 ± 0.0062 | 0.556 ± 0.036 | 0.591 ± 0.032 | 0.443 ± 0.015 | 0.602 ± 0.0074 | 0.435 ± 0.0053 | 0.443 ± 0.015 | 0.59 ± 0.0096
8 | SRWMWFDWLRRA | 0.417 ± 0.065 | 0.644 ± 0.027 | 0.736 ± 0.028 | 0.686 ± 0.026 | 0.747 ± 0.029 | 0.281 ± 0.012 | 0.295 ± 0.0095 | 0.541 ± 0.0019
9 | GRWAFFTWLRWS | 0.261 ± 0.014 | 0.553 ± 0.016 | 0.674 ± 0.016 | 0.62 ± 0.047 | 0.6825 ± 0.0042 | 0.175 ± 0.0041 | 0.177 ± 0.025 | 0.269 ± 0.047
10 | WLFRCFLFVVGG | 0.422 ± 0.0045 | 0.39 ± 0.025 | 0.441 ± 0.013 | 0.371 ± 0.025 | 0.46 ± 0.0069 | 0.413 ± 0.019 | 0.366 ± 0.016 | 0.4363 ± 0.0023
11 | FPVSSRSFSFIP | 0.727 ± 0.046 | 0.66 ± 0.051 | 0.7594 ± 0.0028 | 0.666 ± 0.02 | 0.732 ± 0.019 | 0.627 ± 0.02 | 0.656 ± 0.028 | 0.717 ± 0.053
12 | CLGLFPSLLRLS | 0.325 ± 0.032 | 0.666 ± 0.031 | 0.737 ± 0.021 | 0.644 ± 0.02 | 0.731 ± 0.0092 | 0.285 ± 0.026 | 0.291 ± 0.033 | 0.535 ± 0.009
13 | SLARPGLCFVIA | 0.417 ± 0.034 | 0.534 ± 0.002 | 0.583 ± 0.018 | 0.356 ± 0.029 | 0.569 ± 0.011 | 0.311 ± 0.019 | 0.342 ± 0.026 | 0.543 ± 0.029
14 | FSFSCFFFVLFV | 0.127 ± 0.0048 | 0.0608 ± 0.036 | 0.0424 ± 0.002 | 0.0913 ± 0.018 | 0.11 ± 0.022 | 0.265 ± 0.0023 | 0.0703 ± 0.038 | 0.0898 ± 0.017
15 | RIFWMFFSQHIG | 0.197 ± 0.068 | 0.569 ± 0.011 | 0.761 ± 0.054 | 0.652 ± 0.019 | 0.7247 ± 0.00085 | 0.106 ± 0.0093 | 0.139 ± 0.024 | 0.288 ± 0.017
16 | FNFFFSSVFLLV | 0.299 ± 0.015 | 0.3037 ± 0.0011 | 0.252 ± 0.025 | 0.342 ± 0.048 | 0.436 ± 0.051 | 0.3 ± 0.022 | 0.19 ± 0.02 | 0.334 ± 0.029
